# Measurements published in patent publication US7262177B2, “Conjugates of glycosylated/galactosylated peptide, bifunctional linker, and nucleotidic monomers/polymers, and related compositions and methods of use” (priority 2000, dated 2007).
# Where “and” joins values, the source holds several entries; their conditions need not be identical. Equal values may be shown once.
# What was measured:
# [1] = Serum stability of po 1-mer conjugate, HPLC method (a), column 1; type: in vitro ADME; conditions: 37° C.; for Average Peak area / Trial Peak area: human serum
# Method: (§1) Studies were carried out at physiological conditions. The analyses were accomplished using reversed-phase HPLC and PAGE methods. The raw data are presented in table format (Tables 1, 2 and 3). The serum half-life calculated is t1/2=1/k (0.693), derived from the [A]=[A0]e^−kt, where [A0] is the original amount of substrate, [A] is the measured substrate level, t is time (min), and k is the first-order rate constant.
# (a) Reaction Conditions: 50 μl of human serum were added to 24 nmoles of HPLC purified po 1-mer Conjugate and incubated at 37° C. for allotted time periods (0 min, 60 min, 180 min, 360 min). Column 1: flow 1.0 ml/min, Rainin MicroSorb C18 reversed-phase column HPLC gradient: 100% NH4OAc for 10 min, then 0→100% CH3CN in 25 min. (0.1 M NH4OAc) (Table 1).
# [2] = Stability of 1-mer conjugates in RPMI 1640+10% FCS (PAGE); type: in vitro ADME; conditions: up to 8 hrs, PAGE analysis
# Method: Initially, the stability of the two neoglycoconjugates was assessed in RPMI 1640+10% FCS. […] In terms of cellular uptake, the po-linked conjugate at a dose of 1 μM was taken up rapidly in a progressive manner by Hep G2 cells in vitro to the extent of 24.75 pmoles/10^6 cells at 480 min. The rate of cellular uptake was next analyzed with respect to the administered dose of the conjugate. […] This amount doubled within the next 30 min and peaked at 25 pmoles/million cells at 480 min. […] While the administration of 4 μM conjugate led to a linear increase of conjugate uptake with respect to time, the rate at which cellular uptake occurred upon the administration of 8 μM conjugate rose sharply at 120 min.
# [3] = molecular target: T1, thymidylate synthase (TS) (Homo sapiens, UniProt P04818); assay: Thymidylate synthase activity in treated TSU cells; type: cell-based; conditions: TSU carcinoma cells, 1 μM
# T1 construct: endogenous in cells; host or cells: Hep G2
# Method: Thymidylate synthase inhibition results in insufficient thymidylate levels for DNA replication and can lead to intracellular signaling processes that ultimately lead to cell death. The activity of this paramount enzyme was determined based on the methods of Keyomarsi et al. (J. Biol. Chem., 268, 15142-15149 (1993)). Briefly, 10^5 Hep G2 or TSU cells were grown in culture for 48 h and then the medium was made to a concentration of 1 μM with either po 1-mer or unconjugated 5FdU. At regular intervals (24 hrs, 48 hrs, 72 hrs and 96 hrs) after treatment, the medium was removed and replaced with medium containing deoxyuridine/[^3H]-deoxyuridine mixtures. Cells were incubated at 37° C. for 30 min. Cell medium was then removed and precipitated with charcoal. The supernatant was then counted to determine the presence of [^3H]-H2O. The measurable release of [^3H] as [^3H]-H2O from deoxyuridine, 5′-monophosphate (dUMP) substrate reflects thymidylate synthase activity.
# Hep G2 cells = assay: Inhibition of Hep G2 cellular proliferation (cell counting), 1-mer conjugates; type: cell-based, human
# Method: Hep G2 cells were seeded into a 48-well plate in RPMI supplemented with 10% FCS at a density of 5×10^4 cells/well. Cells were then allowed to incubate at 37° C., 95% RH, 5% CO2 for 24 hrs. After this incubation period, the maintainence medium was aspirated and cells were treated with various concentrations of neoglycoconjugate in 200 μl of RPMI supplemented with 10% FCS. Control wells were treated with 200 μl of RPMI+10% FCS alone. At 0, 24, 48, 72 and 96 hrs, six wells for each condition were washed twice with 0.5 ml of DPBS and treated with 0.5 ml of trypsin (0.25%; prepared in HBSS with 1.0 mM EDTA). Cell number for each condition were determined a using a Coulter electronic cell counter. In all cases, the extent of inhibition of proliferation increased as a function of time. […] Therefore, the type of linkage that conjugates the nucleotide analog to YEE(ahGalNAc)3 influences the ability to inhibit proliferation.
# TS = molecular target: T2, TS (Mus musculus, UniProt P07607); assay: TS activity in liver of xenografted mice; type: in vivo, CD-1 nude mice; conditions: treated
# T2 construct: from tissue; host or cells: liver of CD-1 nude mice
# Method: Initial effects of po 1-mer treatment were noticed after about 5 weeks. Overall, however, tumors continued to grow after this point, but at a slower rate than the control. For instance, at 8 weeks post po 1-mer treatment, the average tumor weight of xenografted human hepatomas in nude CD-1 mice was about 7 g, whereas the average tumor weight of the saline control was about 15 g. Histological analysis was performed after 8 weeks in order to compare the tumors of the control cohort with the tumors of po 1-mer-treated nude mice. […] This weight loss may then be due to the tumor burden, rather than the therapeutic treatment, and was continued through week 8.
# After the treatment was completed, tumors were analyzed both histologically and for TS activity. […] Therefore, it can be deduced that increasing the dose of po 1-mer increased the efficacy without increasing systemic toxicity.
# [4] = Serum stability of po 1-mer conjugate, HPLC method (b), column 2; type: in vitro ADME; conditions: 37° C.; for Average Peak area / Trial Peak area: human serum
# Method: as §1
# (b) Reaction Conditions: 100 μl of human serum were added to 20 nmoles of HPLc purified po 1-mer Conjugate and incubated at 37° C. for allotted time periods (0 min, 15 min, 60 min, 120 min, 240 min). HPLC gradient: 100% Buffer A (0.05M NaxPO4 (pH 5.8) in 2% CH3CN) for 5 min, then 2% CH3CN to 50% CH3CN over the next 20 min. Column 2: flow 4.7 ml/min, Rainin Semi-Preparative C18 reversed-phase column (10 mm i.d.×250 mm L) (Table 2).
# [5] = 0 min, listed as po 1-mer Conjugate
# T2 sequence (P07607 whole entry): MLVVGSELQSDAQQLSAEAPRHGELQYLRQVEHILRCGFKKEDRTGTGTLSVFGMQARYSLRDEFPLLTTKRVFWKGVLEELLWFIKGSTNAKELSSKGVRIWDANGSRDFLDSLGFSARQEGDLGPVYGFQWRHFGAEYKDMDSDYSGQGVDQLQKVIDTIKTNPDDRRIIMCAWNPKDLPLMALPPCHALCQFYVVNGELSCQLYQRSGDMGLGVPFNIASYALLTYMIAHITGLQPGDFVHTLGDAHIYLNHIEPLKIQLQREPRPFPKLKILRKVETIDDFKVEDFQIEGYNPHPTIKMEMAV
# T1 sequence (P04818 2-313 limits assumed): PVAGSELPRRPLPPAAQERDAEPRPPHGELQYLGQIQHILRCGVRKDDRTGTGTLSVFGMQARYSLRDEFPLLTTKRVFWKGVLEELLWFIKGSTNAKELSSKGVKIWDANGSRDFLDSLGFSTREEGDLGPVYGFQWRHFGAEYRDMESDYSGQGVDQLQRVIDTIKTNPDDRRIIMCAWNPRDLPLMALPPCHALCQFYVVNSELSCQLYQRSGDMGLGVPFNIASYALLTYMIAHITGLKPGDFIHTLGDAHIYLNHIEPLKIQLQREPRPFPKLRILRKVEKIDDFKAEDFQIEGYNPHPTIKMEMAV
structure (smiles),measurement,setting,value
"CC(=O)N[C@H]1[C@H](OCCCCCCNC(=O)CC[C@H](NC(=O)CC[C@H](NC(=O)[C@H](Cc2ccc(O)cc2)NC(=O)C2CCC(CN3C(=O)CC(SCCCCCCOP(=O)(O)OC[C@H]4O[C@@H](n5cc(F)c(=O)[nH]c5=O)C[C@@H]4O)C3=O)CC2)C(=O)NCCCCCCO[C@@H]2O[C@H](CO)[C@H](O)[C@H](O)[C@H]2NC(C)=O)C(=O)NCCCCCCO[C@@H]2O[C@H](CO)[C@H](O)[C@H](O)[C@H]2NC(C)=O)O[C@H](CO)[C@H](O)[C@@H]1O (some centres unmarked) [po 1-mer, YEE(ahGalNAc)3-SMCC-poFU]",Average Peak area,[1]; 0 min,17.78
same,Trial Peak area,[1]; [5],17.65 and 17.92
same,Average Peak area,[1]; 60 min,13.77
same,Trial Peak area,"[1]; 60 min, listed as po 1-mer Conjugate",15.11 and 12.43
same,Average Peak area,[1]; 180 min,10.17
same,Trial Peak area,"[1]; 180 min, listed as po 1-mer Conjugate",9.356 and 10.9908
same,Average Peak area,[1]; 360 min,11.4
same,Trial Peak area,[1]; 360 min,11.4
same,half-life at 480 µM,"[1]; human, serum, HPLC (a), read-out: serum t1/2",9.62 h
same,stability in media containing 10% FCS,[2],stable
same,inhibition of TS activity,[3],no inhibitory effect
same,inhibition of proliferation,"Hep G2 cells; 1 μM, compared to untreated control, listed as po-linked conjugate",64%
same,more active than the ps-linked conjugate,Hep G2 cells; in vitro proliferation of Hep G2 cells,approximately 30%
same,"TS activity, COUNTS/MG PROTEIN",TS; weekly 10 mg/kg,19718 counts/mg protein
same,"TS activity, COUNTS/MG PROTEIN",TS; weekly 15 mg/kg,18989 counts/mg protein
same,Average Peak area,[4]; 0 min,13.57
same,Trial Peak area,[4]; [5],13.07 and 12.68 and 14.97
same,Average Peak area,[4]; 15 min,14.86
same,Trial Peak area,[4]; 15 min,14.86
same,Average Peak area,[4]; 60 min,14.22
same,Trial Peak area,[4]; 60 min,14.22
same,Average Peak area,[4]; 120 min,11.96
same,Trial Peak area,[4]; 120 min,11.96
same,Average Peak area,[4]; 240 min,9.727
same,Trial Peak area,[4]; 240 min,9.727
same,half-life at 200 µM,"[4]; human, serum, HPLC (b), read-out: serum t1/2",6.78 h
